# Data from the supplement of paper PMC10567573.
# B1: SLC6A17 (parent)
# chain: HMFTPKLDKMLDPQVWREAATQVF
# Variants of: B1
# Assay: protein stability index of a GFP-peptide fusion (GPS, HEK-293T) (PSI 1-6); higher = more stable
# Details: c terminus: a fixed tail appended
# 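Further: lentivirally expressed fusions sorted by FACS into six bins by GFP to DsRed ratio, PSI derived from sequencing read proportions per bin multiplied by bin number.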
row,Variant,protein stability index
1,F24Y,1.88
2,F24H,2.18
3,F24D,3.56
4,F24N,2.67
5,F24S,3.39
6,F24V,2.69
7,F24K,3.81
8,F24R,2.85
9,F24T,2.38
10,F24Q,2.64
11,F24L,2.7
12,F24P,3.17
13,F24A,2.29
14,F24I,1.54
15,K6G,1.8
16,K6T,1.74
17,K6I,1.7
18,K6C,1.98
19,K6E,1.74
20,K6F,1.65
21,K6R,1.76
22,K6L,2.1
23,K6M,1.62
24,K6D,2.67

row,Variant,protein stability index
1,K6Q,1.51
2,K6Y,2.85
3,K6H,1.83
4,K6S,1.89
5,R17V,2.18
6,R17E,2.3
7,R17Q,1.84
8,R17T,1.82
9,R17L,3.05
10,R17D,2.46
11,R17P,1.89
12,R17F,1.27
13,R17G,2
14,R17M,2.42
15,R17S,2.8
16,R17W,1.6
17,R17A,1.36
18,R17H,1.74
19,R17N,2.26
20,R17K,1.11
21,D8Y,2
22,D8Q,1.87
23,D8N,2.33
24,D8K,2.79

row,Variant,protein stability index
1,D8C,1.67
2,D8E,1.5
3,D8S,2.3
4,D8H,1.84
5,D8F,2.81
6,D8G,2.06
7,D8L,1.76
8,D8A,1.82
9,D8R,3.33
10,D8V,1.34
11,E18R,3.18
12,E18M,1.52
13,E18G,1.02
14,E18Q,2.22
15,E18F,1.85
16,E18T,1.79
17,E18P,1.86
18,E18V,2.37
19,E18A,2.04
20,E18I,1.97
21,E18L,1.38
22,E18N,2.3
23,E18H,1.91
24,L11D,1.87

row,Variant,protein stability index
1,L11Q,2.35
2,L11A,1.55
3,L11V,1.87
4,L11F,2.33
5,L11H,2.23
6,L11K,2.24
7,F3W,2.07
8,F3T,2.01
9,F3G,1.91
10,F3Y,2.6
11,F3A,2.2
12,F3V,2.7
13,F3P,2.65
14,F3L,1.99
15,F3D,2.69
16,F3S,2.27
17,F3K,1.98
18,F3C,2.25
19,F3R,2.4
20,F3E,3.49
21,F3M,1.81
22,L7T,2.27
23,L7P,2.1
24,L7S,2.02

row,Variant,protein stability index
1,L7M,2.38
2,L7N,1.99
3,L7Q,2.55
4,L7K,2.73
5,L7Y,1.46
6,L7C,1.86
7,L7W,1.62
8,L7D,2.55
9,L7E,2.86
10,L7A,1.94
11,L7F,1.8
12,L7R,1.89
13,V23L,1.58
14,V23W,1.75
15,V23D,3.65
16,V23G,2.2
17,V23S,2.05
18,V23F,2.16
19,V23Q,1.74
20,V23E,2.9
21,V23R,3.06
22,V23N,2.07
23,V23T,2.02
24,V23K,2.48

row,Variant,protein stability index
1,V23Y,2.17
2,V23M,1.55
3,V23P,2.2
4,V23A,2.02
5,T21W,2.48
6,T21M,1.54
7,T21K,3.06
8,T21S,1.94
9,T21D,2.36
10,T21E,2.42
11,T21Q,1.28
12,T21F,3.23
13,T21R,1.84
14,T21L,1.88
15,T21P,2.46
16,T21V,1.71
17,T21G,2.13
18,T21H,1.76
19,T21A,1.91
20,T21I,1.48
21,M2D,2.34
22,M2H,2.49
23,M2I,2.53
24,M2F,1.65

row,Variant,protein stability index
1,M2A,1.9
2,M2Q,2.52
3,M2L,1.71
4,M2Y,2.84
5,M2V,1.62
6,M2K,2.13
7,M2E,2.49
8,M2S,2.03
9,A19T,2.56
10,A19M,1.5
11,A19I,1.91
12,A19K,1.79
13,A19W,1.35
14,A19S,1.52
15,A19Y,2.12
16,A19D,2.21
17,A19C,3.43
18,A19Q,2.35
19,A19V,2.15
20,A19H,2.14
21,A19G,1.63
22,A19R,2.03
23,P5M,1.03
24,P5R,1.78

row,Variant,protein stability index
1,P5Y,2.08
2,P5E,2.4
3,P5V,1.69
4,P5S,2.09
5,P5L,1.55
6,P5I,3.2
7,P5W,1.3
8,P5T,1.53
9,P5Q,2.49
10,P5C,1.53
11,P5H,1.85
12,P5K,1.69
13,P5A,2.46
14,P5D,2.61
15,V15F,2.22
16,V15L,2.37
17,V15S,2.15
18,V15W,2.24
19,V15Q,1.89
20,V15D,2.96
21,V15M,1.63
22,V15H,2.34
23,V15T,2.66
24,V15A,2.38

row,Variant,protein stability index
1,V15G,1.96
2,V15Y,2.12
3,V15I,1.35
4,V15R,3.24
5,V15C,2.12
6,V15N,1.9
7,K9A,1.21
8,K9L,1.83
9,K9F,1.52
10,K9V,1.5
11,K9M,2.03
12,K9W,2.95
13,K9D,2.63
14,K9S,1.53
15,K9Y,1.33
16,K9G,1.25
17,K9Q,1.92
18,K9P,3.02
19,D12V,1.32
20,D12G,1.3
21,D12T,2.45
22,D12K,1.63
23,D12N,1.34
24,D12A,1.98

row,Variant,protein stability index
1,D12W,2.8
2,D12I,1.79
3,D12M,1.42
4,D12Y,1.34
5,D12H,1.66
6,D12R,1.81
7,D12S,1.98
8,D12E,1.39
9,D12C,2.67
10,Q14I,1.12
11,Q14S,1.59
12,Q14K,2.26
13,Q14R,1.94
14,Q14M,2.06
15,Q14W,1.69
16,Q14F,2.13
17,Q14L,2.14
18,Q14E,2.41
19,Q14T,2.23
20,Q14G,1.56
21,Q14Y,2.03
22,Q14H,1.74
23,Q14P,1.63
24,Q14A,1.73

row,Variant,protein stability index
1,Q14V,2.51
2,M10N,1.99
3,M10Y,2.23
4,M10Q,2.78
5,M10D,2.63
6,M10F,2.59
7,M10R,1.78
8,M10L,3.08
9,M10P,2.4
10,M10E,2.57
11,M10W,2.05
12,M10K,1.78
13,M10S,2.17
14,M10V,1.85
15,M10H,1.42
16,M10I,1.74
17,H1A,2.73
18,H1Y,1.79
19,H1P,2.72
20,H1L,1.88
21,H1K,1.5
22,H1F,2.13
23,H1Q,2.29
24,H1V,2.51

row,Variant,protein stability index
1,H1T,1.46
2,H1R,1.98
3,H1E,2.17
4,Q22S,1.9
5,Q22R,1.77
6,Q22L,1.68
7,Q22A,1.36
8,Q22I,1.45
9,Q22G,1.93
10,Q22W,2.1
11,Q22D,2.43
12,Q22T,1.82
13,Q22N,2.5
14,Q22H,1.64
15,Q22E,1.9
16,Q22K,2.52
17,T4R,2.39
18,T4M,2.97
19,T4Q,1.8
20,T4Y,2.11
21,T4D,1.76
22,T4E,2.31
23,T4S,2.67
24,T4P,2.07

row,Variant,protein stability index
1,T4A,2.4
2,T4N,1.39
3,T4K,1.67
4,T4F,1.9
5,T4L,2.69
6,T4H,1.79
7,T4I,1.45
8,T4G,2.1
9,W16Q,3.06
10,W16Y,2.62
11,W16L,2.34
12,W16I,2.33
13,W16K,2.94
14,W16G,3.27
15,W16R,3.72
16,W16A,2.47
17,W16N,3.2
18,W16M,2.14
19,W16T,3.05
20,W16C,2.75
21,W16E,3.76
22,A20H,1.26
23,A20P,1.48
24,A20D,2.24

row,Variant,protein stability index
1,A20R,1.87
2,A20N,1.94
3,A20K,2.38
4,A20C,1.82
5,A20L,2.6
6,A20E,2.41
7,A20I,2.21
8,A20T,2.19
9,A20G,1.82
10,P13V,2.11
11,P13Y,1.69
12,P13E,2.4
13,P13F,1.67
14,P13L,1.86
15,P13W,1
16,P13C,1.82
17,P13H,1.54
18,P13Q,2.19
19,P13N,2.4
20,P13S,1.93
21,P13A,2
22,P13M,2.33
